Source: the supplement of paper PMC9112550, “Optimization of the antimicrobial peptide Bac7 by deep mutational scanning” (BMC Biology, 2022)

System: Escherichia coli TOP10
Experiment: shrunken log2 fold change of peptide-encoding DNA abundance (4.5 h post-induction vs induction); higher = less antimicrobial activity (less host growth inhibition)
Conditions: time post-induction: 4.5 h; library: site-saturation at positions 5, 18, 19, 20
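Further: peptides expressed intracellularly from a pBAD plasmid library in pooled LB shake-flask culture, induced with 0.3% L-arabinose, DNA abundance read by NGS, three biological replicates, DESeq2 with apeglm shrinkage.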

In order of rising “shrunken log2 fold change” value:
1. RRIRCRPPRLPRPRPRPYTQPRP  -1.31
2. RRIRCRPPRLPRPRPRPYYAPRP  -1.1
3. RRIRCRPPRLPRPRPRPYTLPRP  -1.07
4. RRIRDRPPRLPRPRPRPCNNPRP  -0.931
5. RRIRDRPPRLPRPRPRPAYNPRP  -0.764
6. RRIRDRPPRLPRPRPRPFYKPRP  -0.421
7. RRIRCRPPRLPRPRPRPYRPPRP  -0.352
8. RRIRDRPPRLPRPRPRPFIIPRP  -0.348
9. RRIRDRPPRLPRPRPRPFDTPRP  -0.329
10. RRIRDRPPRLPRPRPRPCHQPRP  -0.328
11. RRIRDRPPRLPRPRPRPAKYPRP  -0.315
12. RRIRDRPPRLPRPRPRPAFYPRP  -0.305
13. RRIRCRPPRLPRPRPRPYYRPRP  -0.301
14. RRIRDRPPRLPRPRPRPDNVPRP  -0.273
15. RRIRCRPPRLPRPRPRPYSLPRP  -0.258
16. RRIRDRPPRLPRPRPRPFVNPRP  -0.254
17. RRIRDRPPRLPRPRPRPFVCPRP  -0.213
18. RRIRDRPPRLPRPRPRPDYNPRP  -0.204
19. RRIRDRPPRLPRPRPRPFPKPRP  -0.201
20. RRIRDRPPRLPRPRPRPFVQPRP  -0.194
21. RRIRCRPPRLPRPRPRPYSKPRP  -0.192
22. RRIRDRPPRLPRPRPRPFDGPRP  -0.192
23. RRIRDRPPRLPRPRPRPGNTPRP  -0.165
24. RRIRDRPPRLPRPRPRPFNDPRP  -0.158
25. RRIRDRPPRLPRPRPRPADPPRP  -0.155
26. RRIRDRPPRLPRPRPRPGSNPRP  -0.153
27. RRIRDRPPRLPRPRPRPCNPPRP  -0.13
28. RRIRDRPPRLPRPRPRPAMIPRP  -0.129
29. RRIRDRPPRLPRPRPRPADMPRP  -0.119
30. RRIRDRPPRLPRPRPRPDKSPRP  -0.119
31. RRIRDRPPRLPRPRPRPFWTPRP  -0.116
32. RRIRDRPPRLPRPRPRPFMDPRP  -0.112
33. RRIRDRPPRLPRPRPRPFYGPRP  -0.108
34. RRIRDRPPRLPRPRPRPCRDPRP  -0.106
35. RRIRDRPPRLPRPRPRPCHFPRP  -0.105
36. RRIRDRPPRLPRPRPRPAVYPRP  -0.097
37. RRIRDRPPRLPRPRPRPCKMPRP  -0.0957
38. RRIRDRPPRLPRPRPRPDFRPRP  -0.0735
39. RRIRDRPPRLPRPRPRPFAKPRP  -0.0729
40. RRIRDRPPRLPRPRPRPFMKPRP  -0.0698
41. RRIRDRPPRLPRPRPRPGKQPRP  -0.0597
42. RRIRDRPPRLPRPRPRPAFWPRP  -0.0581
43. RRIRDRPPRLPRPRPRPGICPRP  -0.0538
44. RRIRDRPPRLPRPRPRPGPQPRP  -0.0494
45. RRIRDRPPRLPRPRPRPFEIPRP  -0.0367
46. RRIRDRPPRLPRPRPRPDAHPRP  -0.036
47. RRIRDRPPRLPRPRPRPGNLPRP  -0.0298
48. RRIRDRPPRLPRPRPRPGNRPRP  -0.0278
49. RRIRDRPPRLPRPRPRPAQQPRP  -0.0267
50. RRIRDRPPRLPRPRPRPFNSPRP  -0.0203
51. RRIRDRPPRLPRPRPRPCSHPRP  -0.0198
52. RRIRDRPPRLPRPRPRPAEDPRP  -0.017
53. RRIRDRPPRLPRPRPRPDSVPRP  -0.0148
54. RRIRDRPPRLPRPRPRPFETPRP  -0.0134
55. RRIRDRPPRLPRPRPRPEDCPRP  -0.0123
56. RRIRDRPPRLPRPRPRPAYLPRP  -0.011
57. RRIRDRPPRLPRPRPRPDCQPRP  -0.00973
58. RRIRDRPPRLPRPRPRPFCHPRP  -0.00713
59. RRIRDRPPRLPRPRPRPELKPRP  -0.00616
60. RRIRDRPPRLPRPRPRPAYTPRP  -0.00595
61. RRIRDRPPRLPRPRPRPDIRPRP  -0.00151
62. RRIRDRPPRLPRPRPRPAQGPRP  0.00228
63. RRIRDRPPRLPRPRPRPGNHPRP  0.0062
64. RRIRCRPPRLPRPRPRPYSSPRP  0.00688
65. RRIRDRPPRLPRPRPRPFLRPRP  0.00895
66. RRIRDRPPRLPRPRPRPEEDPRP  0.012
67. RRIRDRPPRLPRPRPRPFGIPRP  0.0183
68. RRIRDRPPRLPRPRPRPDVRPRP  0.0212
69. RRIRDRPPRLPRPRPRPEWYPRP  0.0233
70. RRIRDRPPRLPRPRPRPEDIPRP  0.0238
71. RRIRDRPPRLPRPRPRPEKQPRP  0.0247
72. RRIRDRPPRLPRPRPRPGMHPRP  0.0286
73. RRIRDRPPRLPRPRPRPDEKPRP  0.0291
74. RRIRDRPPRLPRPRPRPDGFPRP  0.0291
75. RRIRDRPPRLPRPRPRPCSDPRP  0.0293
76. RRIRDRPPRLPRPRPRPGQTPRP  0.032
77. RRIRDRPPRLPRPRPRPAEKPRP  0.0328
78. RRIRDRPPRLPRPRPRPAELPRP  0.0334
79. RRIRDRPPRLPRPRPRPACQPRP  0.0344
80. RRIRDRPPRLPRPRPRPDIMPRP  0.0348
81. RRIRDRPPRLPRPRPRPFPCPRP  0.0367
82. RRIRDRPPRLPRPRPRPDLMPRP  0.043
83. RRIRDRPPRLPRPRPRPFNWPRP  0.0464
84. RRIRDRPPRLPRPRPRPEMKPRP  0.0494
85. RRIRDRPPRLPRPRPRPFPLPRP  0.0517
86. RRIRDRPPRLPRPRPRPDLEPRP  0.0526
87. RRIRDRPPRLPRPRPRPENSPRP  0.0647
88. RRIRDRPPRLPRPRPRPGMMPRP  0.0672
89. RRIRDRPPRLPRPRPRPCSPPRP  0.0779
90. RRIRDRPPRLPRPRPRPEWGPRP  0.0825
91. RRIRDRPPRLPRPRPRPDFPPRP  0.0974
92. RRIRDRPPRLPRPRPRPGFVPRP  0.0977
93. RRIRDRPPRLPRPRPRPGWSPRP  0.104
94. RRIRDRPPRLPRPRPRPFENPRP  0.115
95. RRIRDRPPRLPRPRPRPCCMPRP  0.125
96. RRIRDRPPRLPRPRPRPCWLPRP  0.127
97. RRIRDRPPRLPRPRPRPGQCPRP  0.131
98. RRIRDRPPRLPRPRPRPDDMPRP  0.155
99. RRIRDRPPRLPRPRPRPADSPRP  0.157
100. RRIRDRPPRLPRPRPRPFQKPRP  0.158
101. RRIRDRPPRLPRPRPRPCVTPRP  0.163
102. RRIRDRPPRLPRPRPRPAEEPRP  0.168
103. RRIRDRPPRLPRPRPRPAWSPRP  0.168
104. RRIRDRPPRLPRPRPRPDTHPRP  0.17
105. RRIRDRPPRLPRPRPRPGWYPRP  0.178
106. RRIRDRPPRLPRPRPRPAKQPRP  0.181
107. RRIRDRPPRLPRPRPRPGANPRP  0.19
108. RRIRDRPPRLPRPRPRPFGAPRP  0.191
109. RRIRDRPPRLPRPRPRPDFFPRP  0.195
110. RRIRDRPPRLPRPRPRPGDAPRP  0.207
111. RRIRDRPPRLPRPRPRPGHDPRP  0.207
112. RRIRDRPPRLPRPRPRPDNDPRP  0.212
113. RRIRDRPPRLPRPRPRPFLFPRP  0.212
114. RRIRDRPPRLPRPRPRPAQSPRP  0.216
115. RRIRDRPPRLPRPRPRPAPEPRP  0.225
116. RRIRDRPPRLPRPRPRPCAKPRP  0.244
117. RRIRDRPPRLPRPRPRPGGSPRP  0.25
118. RRIRDRPPRLPRPRPRPAQIPRP  0.263
119. RRIRDRPPRLPRPRPRPAAIPRP  0.272
120. RRIRDRPPRLPRPRPRPATPPRP  0.276
121. RRIRDRPPRLPRPRPRPDPIPRP  0.278
122. RRIRDRPPRLPRPRPRPCMIPRP  0.28
123. RRIRDRPPRLPRPRPRPAEPPRP  0.288
124. RRIRDRPPRLPRPRPRPFIWPRP  0.293
125. RRIRDRPPRLPRPRPRPEYGPRP  0.305
126. RRIRDRPPRLPRPRPRPDALPRP  0.306
127. RRIRDRPPRLPRPRPRPDWLPRP  0.34
128. RRIRDRPPRLPRPRPRPENQPRP  0.351
129. RRIRDRPPRLPRPRPRPARTPRP  0.364
130. RRIRDRPPRLPRPRPRPCVHPRP  0.412
131. RRIRDRPPRLPRPRPRPEDFPRP  0.427
132. RRIRDRPPRLPRPRPRPFLDPRP  0.431
133. RRIRDRPPRLPRPRPRPDCIPRP  0.438
134. RRIRDRPPRLPRPRPRPAPLPRP  0.445
135. RRIRDRPPRLPRPRPRPDINPRP  0.47
136. RRIRDRPPRLPRPRPRPGRAPRP  0.478
137. RRIRDRPPRLPRPRPRPGWPPRP  0.514
138. RRIRDRPPRLPRPRPRPAGYPRP  0.528
139. RRIRDRPPRLPRPRPRPAAPPRP  0.545
140. RRIRDRPPRLPRPRPRPEFNPRP  0.574
141. RRIRDRPPRLPRPRPRPGAKPRP  0.592
142. RRIRDRPPRLPRPRPRPDLDPRP  0.632
143. RRIRDRPPRLPRPRPRPDMHPRP  0.633
144. RRIRDRPPRLPRPRPRPEIGPRP  0.765
145. RRIRDRPPRLPRPRPRPEPAPRP  0.883
146. RRIRDRPPRLPRPRPRPEMHPRP  0.891
147. RRIRDRPPRLPRPRPRPGCGPRP  0.92
148. RRIRDRPPRLPRPRPRPECRPRP  1.03
149. RRIRDRPPRLPRPRPRPETAPRP  1.15
150. RRIRDRPPRLPRPRPRPAVCPRP  1.19
